Test results: PMC7584586

Key:
[1] = molecular target: TfiA, yeast two-hybrid fusion (Helicobacter pylori); assay: two-hybrid; pGBT9 bait and pGAD424 prey in S. cerevisiae PJ69-4A; lacZ reporter, β-galactosidase activity in cell extracts with ONPG
[2] = molecular target: TfiT, yeast two-hybrid fusion (Helicobacter pylori); assay: as above

Row | Substance | lacZ fold increase relative to the self-activation control of the bait vector [1] [fold] | lacZ reporter activity (Miller units) [1] [Miller units] | lacZ fold increase relative to the self-activation control of the bait vector [2] [fold] | lacZ reporter activity (Miller units) [2] [Miller units]
1 | TfiT, yeast two-hybrid fusion (enzyme) | 12.9 | 60.8 |  | 
2 | TfiA, yeast two-hybrid fusion (natural protein) | 27.4 | 129 | 47.2 | 89.8
